Measured values published in publication PMC11063191, “Galectin-3 impairs calcium transients and β-cell function” (Nature Communications, 2024).

Biological target: T1, Mouse Gal3 protein (recombinant) (mouse, UniProt P16110 1-264)
T1 construct: Galectin-3, mouse, bought protein; R&D is named as the source only for the BLI assay; also called galectin-3; source: bought: R&D
Assay: BLI; His-tagged CACNG1 (30-109) captured on Ni-NTA biosensors, Gal3 in a concentration gradient, Octet (ForteBio), 30 °C
Details: both partners purified

T1 sequence (P16110 whole entry): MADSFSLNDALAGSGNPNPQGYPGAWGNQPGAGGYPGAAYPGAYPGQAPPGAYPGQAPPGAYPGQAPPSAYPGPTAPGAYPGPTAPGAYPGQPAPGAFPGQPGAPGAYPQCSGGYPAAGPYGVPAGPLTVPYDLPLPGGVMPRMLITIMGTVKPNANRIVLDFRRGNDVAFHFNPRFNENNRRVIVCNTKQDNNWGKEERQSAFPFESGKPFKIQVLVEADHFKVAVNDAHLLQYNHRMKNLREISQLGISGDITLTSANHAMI

B1: Extracellular domains of mouse CACNG1 (30-109 AA) with His tags (domain or fragment, UniProt O70578 30-109, looked up)
chain: DHWAVLSPHLEHHNETCEAAHFGLWRICTARVAVHNKDKSCEHVTPSGEKNCSYFRHFNPGESSEIFEFTTQKEYSISAA
modifications: includes the two glycosylation sites
notes: CACNG1, mouse, extracellular domains, residues 30-109, including the two glycosylation sites
- Kd: 180 nM
